Experimental data: the supplement of paper PMC7125110
± gives the standard error. For some assays here: Fewer inactive variants are shown than the library holds.

B1: glmS ribozyme (parent)
chain: AUAAAAGCGCCAGAACUACAGAAAUGUAGUUGACGAGGAGGAGGUUUAUCGAAUUUUCGGCGGAUGCCUCCAAA

Legend:
Conditions in all cases: with glucosamine-6-phosphate
[1] = variants of: B1; experiment: kcat; higher = faster cleavage; RNA array
In short: (§1)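 A hybridised Cy3 probe tracked barcoded ribozyme variants, transcribed in situ by E. coli RNA polymerase on sequenced MiSeq chips, at 37 °C. The variants received 40 μM to 10 mM glucosamine-6-phosphate in HEPES/KCl/Mg(OAc)2 buffer. kobs came from decay fits and kcat and KM from weighted Michaelis–Menten fits.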

[2] = variants of: B1; experiment: KM; higher = weaker cofactor use; RNA array
In short: as §1

[3] = variants of: B1; experiment: self-cleavage kobs at 40 uM GlcN6P; higher = faster cleavage; RNA array
In short: as §1

[4] = variants of: B1; experiment: self-cleavage kobs at 160 uM GlcN6P; higher = faster cleavage; RNA array
In short: as §1

[5] = variants of: B1; experiment: self-cleavage kobs at 640 uM GlcN6P; higher = faster cleavage; RNA array
In short: as §1

[6] = variants of: B1; experiment: self-cleavage kobs at 2500 uM GlcN6P; higher = faster cleavage; RNA array
In short: as §1

[7] = variants of: B1; experiment: self-cleavage kobs at 10000 uM GlcN6P; higher = faster cleavage; RNA array
In short: as §1

Variant	kcat [1] [s⁻¹]	KM [2] [µM]	self-cleavage kobs at 40 uM GlcN6P [3] [s⁻¹]	self-cleavage kobs at 160 uM GlcN6P [4] [s⁻¹]	self-cleavage kobs at 640 uM GlcN6P [5] [s⁻¹]	self-cleavage kobs at 2500 uM GlcN6P [6] [s⁻¹]	self-cleavage kobs at 10000 uM GlcN6P [7] [s⁻¹]
C19A G40C	0.00125 ± 0.00032	832 ± 360	7.99e-05 ± 1.9e-05	0.000173 ± 5.2e-05	0.000434 ± 0.00012	0.00156 ± 0.00041	0.00113 ± 0.00023
A15U U56G	0.00786 ± 0.0027	3290 ± 1500	0.000149 ± 2.5e-05	0.000265 ± 5e-05	0.00143 ± 0.00018	0.00363 ± 0.00053	0.00565 ± 0.00088
G29C U56G	0.00345 ± 0.0011	6770 ± 2600		7.08e-05 ± 1.4e-05	0.000321 ± 6e-05	0.00115 ± 0.00022	0.00181 ± 0.00049
A15U U57G C58U C70A	6.42e-05 ± 1.8e-05			4.86e-05 ± 1.7e-05	9.48e-05 ± 3.5e-05	7.42e-05 ± 2e-05	
C16G U31G	0.000843 ± 0.00018	2360 ± 940	4.37e-05 ± 1.7e-05	4.98e-05 ± 1.6e-05	0.000186 ± 4.5e-05	0.000366 ± 0.0001	0.00071 ± 0.0001
C16G U31C	0.000606 ± 0.00011	3720 ± 980			8.88e-05 ± 1.7e-05	0.000269 ± 4.6e-05	0.000401 ± 0.00011
G29A U31G	0.000319 ± 2.2e-05	1380 ± 180		3.63e-05 ± 1e-05	9.51e-05 ± 1.6e-05	0.000217 ± 3.4e-05	0.000272 ± 5.4e-05
C16U U46A	0.00336 ± 0.00057	2760 ± 760	5.67e-05 ± 1.4e-05	0.00012 ± 5.1e-05	0.000641 ± 0.00012	0.00176 ± 0.00024	0.00249 ± 0.00038
C16A C70G	4.18e-05 ± 5e-06				3.86e-05 ± 1.5e-05	5.28e-05 ± 1e-05	3.56e-05 ± 7.5e-06
C16G C58G	6.23e-05 ± 1.2e-05		< 1e-05			7.72e-05 ± 1.5e-05	5.56e-05 ± 8.3e-06
C16G U47A	0.00274 ± 0.00078	1710 ± 700	6.21e-05 ± 9.9e-06	0.00027 ± 3.9e-05	0.000755 ± 0.00013	0.00124 ± 0.0002	0.00329 ± 0.00047
C16G U47G	0.000729 ± 0.00014	1210 ± 400		7.03e-05 ± 1.6e-05	0.000307 ± 4.8e-05	0.000604 ± 0.0001	0.000565 ± 0.0001
G29A G32C	0.000144 ± 1.8e-05	5140 ± 1500				5.01e-05 ± 9.3e-06	9.45e-05 ± 9.1e-06
